Values quoted from earlier work in article PMC3758474.

Legend:
Grb7 SH2 (Homo sapiens) = Grb7 SH2 (Homo sapiens) (UniProt Q14451)
[1] = target: erbB2 pY1139 peptide pY1139 peptide (Homo sapiens) (UniProt P04626); experiment: ITC

For Grb7 SH2 (from UniProt Q14451), the Kd (Grb7 SH2 (Homo sapiens)) is given as 11 µM and the Kd [1] is given as 2.28 µM.
